Patent US7981652B2, “Modified cytochrome P450 monooxygenases” (BASF Aktiengesellschaft, priority 1999, dated 2011)

Tests used:
[1] = pNCA enzyme activity assay, substrate 15-pNCA; format: biochemical
Procedure: (§1) For the pNCA activity assay use was made of 8 μl of a 10 mM pNCA solution in DMSO in a disposable cell in an end volume of 1 ml. After 850 μl of Tris/HCl buffer (0.1 M, pH 8.2) and 0.1 to 0.4 nmol P450 had been added to the pNCA/DMSO solution in question, the samples were preincubated for 5 minutes before the reaction was started by adding 50 μl of an aqueous solution of […]. To determine Kcat and Km, a concentration series was established for the various pNCA substrates (regarding details of the detection method, see (12)).
(§2) A 96-well plate (Greiner, Frickenhausen, Germany) was used for carrying out the pNCA test in a microtiter plate. In a total reaction volume of 250 μl in Tris/HCl buffer (0.1 M, pH 8.2), the reaction batch contained either 60 nmol 8-pNCA, 15 nmol 10-pNCA, 15 nmol 12-pNCA or 15 nmol 15-pNCA, in each case dissolved in 2.5 μl of DMSO. After the samples had been preincubated for 5 minutes with 40 μl of P450 BM-3 samples, the reaction was started by injecting, into each well, 30 μl of a 1 mM NADPH solution. Immediately after the NADPH solution had been added, the plates were measured in a plate reader at 405 nm.

[2] = pNCA enzyme activity assay, substrate 12-pNCA; format: biochemical
Procedure: as §1, §2

[3] = pNCA enzyme activity assay, substrate 10-pNCA; format: biochemical
Procedure: as §1, §2

[4] = pNCA enzyme activity assay, substrate 8-pNCA; format: biochemical
Procedure: as §1, §2

[5] = Hydroxylation of lauric acid with P450 BM-3 mutants, GC analysis of products; format: biochemical
Procedure: The following batch was chosen to hydroxylate the fatty acids in the presence of P450 BM-3 or its mutants:
Prior to the reaction, the enzyme lyophilisate was dissolved in 1 ml of reaction buffer and first incubated for 30 minutes at 36° C. Like the addition of 2% v/v acetone, the incubation leads to an increase in activity of 60 and 75%, respectively.
After 5 minutes' incubation, 500 μl of the previously prepared NADPH solution (12.5 mg/ml) were added. The course of the reaction is monitored by absorption measurements at 340 nm, and the consumption of NADPH can be observed. Theoretically 4 ml of NADPH solution would be required for a stoichiometric conversion, however, an unduly high NADPH concentration in the reaction solution results in inactivation of the enzyme, which is why the cofactor is added in 500 μl steps.
After the reaction had ended, the solution was acidified with 5M hydrochloric acid to a pH of 2. The fatty acids or hydroxylated fatty acids precipitate during this and result in a noticeable cloudiness of the solution. Thereafter, the mixture was extracted twice with in each case 10 ml of dichloromethane and dried over sodium sulfate. After filtration through a folded filter, the dichloromethane was removed on a rotary evaporator or by evaporation with nitrogen. The white solid which remained was taken up in 2 ml of dichloromethane and used in the GC analysis.
A Fisons gas chromatograph (Fisons Instruments Mega Series, Mainz, Germany) equipped with FID was used for the analysis (Optima 5-column, internal diameter 25 m×0.25 mm, Macherey & Nagel, Düren, Germany).
For analysis, starting materials and products were silylated with MSHFBA. During this, all hydroxyl and acid groups are converted into the corresponding trimethylsilyl ethers and esters, respectively. Care must be taken that the sample is anhydrous since otherwise side reactions with the silylating agent result. 15 μl of MSHFBA were pipetted into 10 μl of the hydroxy-fatty-acid-containing dichloromethane solution and the mixture was incubated for 15 minutes at room temperature. After 25 μl of dichloromethane had been added, the GC analysis was carried out.
To this end, 1 μl of the silylated samples were injected into the gas chromatograph. Injector and detector temperature were 350° C. The following temperature programmes were used:
To determine the reaction yields, gas chromatograms of standards were recorded. […] These ion fluxes are not proportional to the quantitative ratio of starting material and product. […] The empirical formulae of the standards and of the products are identical, and the structure only differs with regard to the position of the hydroxyl group, which is why approximately identical detectable ion fluxes can be assumed for identical quantities.

[6] = from reference (12); cited from earlier work
[7] = from reference (1); cited from earlier work

B1: WT: wild-type cytochrome P450 monooxygenase BM-3 from Bacillus megaterium, SEQ ID NO:2 (protein, listed as Bacillus megaterium)
chain: TIKEMPQPKTFGELKNLPLLNTDKPVQALMKIADELGEIFKFEAPGRVTRYLSSQRLIKEACDESRFDKNLSQALKFVRDFAGDGLFTSWTHEKNWKKAHNILLPSFSQQAMKGYHAMMVDIAVQLVQKWERLNADEHIEVPEDMTRLTLDTIGLCGFNYRFNSFYRDQPHPFITSMVRALDEAMNKLQRANPDDPAYDENKRQFQEDIKVMNDLVDKIIADRKASGEQSDDLLTHMLNGKDPETGEPLDDENIRYQIITFLIAGHETTSGLLSFALYFLVKNPHVLQKAAEEAARVLVDPVPSYKQVKQLKYVGMVLNEALRLWPTAPAFSLYAKEDTVLGGEYPLEKGDELMVLIPQLHRDKTIWGDDVEEFRPERFENPSAIPQHAFKPFGNGQRACIGQQFALHEATLVLGMMLKHFDFEDHTNYELDIKETLTLKPEGFVVKAKSKKIPLGGIPSPSTEQSAKKVRKKAENAHNTPLLVLYGSNMGTAEGTARDLADIAMSKGFAPQVATLDSHAGNLPREGAVLIVTASYNGHPPDNAKQFVDWLDQASADEVKGVRYSVFGCGDKNWATTYQKVPAFIDETLAAKGAENIADRGEADASDDFEGTYEEWREHMWSDVAAYFNLDIENSEDNKSTLSLQFVDSAADMPLAKMHGAFSTNVVASKELQQPGSARSTRHLEIELPKEASYQEGDHLGVIPRNYEGIVNRVTARFGLDASQQIRLEAEEEKLAHLPLAKTVSVEELLQYVELQDPVTRTQLRAMAAKTVCPPHKVELEALLEKQAYKEQVLAKRLTMLELLEKYPACEMKFSEFIALLPSIRPRYYSISSSPRVDEKQASITVSVVSGEAWSGYGEYKGIASNYLAELQEGDTITCFISTPQSEFTLPKDPETPLIMVGPGTGVAPFRGFVQARKQLKEQGQSLGEAHLYFGCRSPHEDYLYQEELENAQSEGIITLHTAFSRMPNQPKTYVQHVMEQDGKKLIELLDQGAHFYICGDGSQMAPAVEATLMKSYADVHQVSEADARLWLQQLEEKGRYAKDVWAG
**Q.** With B1 as the molecule, how does the Specific activity [1] read?
**A.** The Specific activity was 405 nmol/min/nmol P450.

**Q.** What about the Specific activity [2] of the same molecule?
**A.** The Specific activity was 141 nmol/min/nmol P450.

**Q.** What about the Specific activity [3] of the same molecule?
**A.** The Specific activity was 339 nmol/min/nmol P450.

**Q.** What about the Specific activity [4] of the same molecule?
**A.** The Specific activity was 15 nmol/min/nmol P450.

**Q.** What about the “positions in which the enzyme is active” value ([5]; lauric acid) of the same molecule?
**A.** Its value is “only active in the positions w-1, w-2 and w-3”.

**Q.** And the “Hydroxylation position ω-1, share of products” value ([5]; lauric acid (C12))?
**A.** Its value is 38%.

**Q.** What about the “Hydroxylation position ω-2, share of products” value ([5]; lauric acid (C12)) of the same molecule?
**A.** The value was 28%.

**Q.** And the “Hydroxylation position ω-3, share of products” value ([5]; lauric acid (C12))?
**A.** The value was 34%.

**Q.** And the “conversion of 12-pNCA (ω-hydroxylation)” value [6]?
**A.** The value was 33%.

**Q.** And the “catalytic activity for fatty acids with a chain length of less than 12 carbon atoms” value [7]?
**A.** The value was “no catalytic activity”.
